Here are results for 5 molecules from PMC7367873, “Dissecting the sequence determinants for dephosphorylation by the catalytic subunits of phosphatases PP1 and PP2A” (Nature Communications, 2020).

In one test the test system is GFP-14-3-3β. The test is described as follows: GFP-14-3-3β co-IP with LC-MS/MS, untreated GFP-14-3-3β versus GFP control (14-3-3 interactome). It counts as binding, human. The conditions noted are these: label-free quantification, 3 replicates each.
Test [1] has as its system GFP-14-3-3β and its binding proteins. Kind of test: GFP-14-3-3β co-IP with LC-MS/MS label-free quantification, untreated versus PP1c-treated. Also on record: species or system human. The conditions noted are these: label-free quantification, 3 replicates each.
Where [2] appears, read: GFP-14-3-3β co-IP LC-MS/MS, untreated vs GFP, student's t-test.
The mark [3] stands for this setting: GFP-14-3-3β co-IP LC-MS/MS, PP1 vs untreated, student's t-test.

B1: LMNA (protein, UniProt P02545 1-661, looked up)
Prelamin-A/C: METPSQRRATRSGAQASSTPLSPTRITRLQEKEDLQELNDRLAVYIDRVRSLETENAGLRLRITESEEVVSREVSGIKAAYEAELGDARKTLDSVAKERARLQLELSKVREEFKELKARNTKKEGDLIAAQARLKDLEALLNSKEAALSTALSEKRTLEGELHDLRGQVAKLEAALGEAKKQLQDEMLRRVDAENRLQTMKEELDFQKNIYSEELRETKRRHETRLVEIDNGKQREFESRLADALQELRAQHEDQVEQYKKELEKTYSAKLDNARQSAERNSNLVGAAHEELQQSRIRIDSLSAQLSQLQKQLAAKEAKLRDLEDSLARERDTSRRLLAEKEREMAEMRARMQQQLDEYQELLDIKLALDMEIHAYRKLLEGEEERLRLSPSPTSQRSRGRASSHSSQTQGGGSVTKKRKLESTESRSSFSQHARTSGRVAVEEVDEEGKFVRLRNKSNEDQSMGNWQIKRQNGDDPLLTYRFPPKFTLKAGQVVTIWAAGAGATHSPPTDLVWKAQNTWGCGNSLRTALINSTGEEVAMRKLVRSVTVVEDDEDEDGDDLLHHHHGSHCSSSGDPAEYNLRSRTVLCGTCGQPADKASASGSGAQVGGPISSGSSASSVTVTRSYRSVGGSGGGSFGDNLVTRSYLLGNSSPRTQSPQNC
For B1, the “Difference (log2), untreated vs GFP” value with GFP-14-3-3β (setting [2]) was -0.3549 log2. Moreover, the “Difference (log2), PP1 vs untreated” value in test [1] (setting [3]) is recorded as -0.4623 log2.

B2: WDR3 (protein, UniProt Q9UNX4 1-943, looked up)
WD repeat-containing protein 3: MGLTKQYLRYVASAVFGVIGSQKGNIVFVTLRGEKGRYVAVPACEHVFIWDLRKGEKILILQGLKQEVTCLCPSPDGLHLAVGYEDGSIRIFSLLSGEGNVTFNGHKAAITTLKYDQLGGRLASGSKDTDIIVWDVINESGLYRLKGHKDAITQALFLREKNLLVTSGKDTMVKWWDLDTQHCFKTMVGHRTEVWGLVLLSEEKRLITGASDSELRVWDIAYLQEIEDPEEPDPKKIKGSSPGIQDTLEAEDGAFETDEAPEDRILSCRKAGSIMREGRDRVVNLAVDKTGRILACHGTDSVLELFCILSKKEIQKKMDKKMKKARKKAKLHSSKGEEEDPEVNVEMSLQDEIQRVTNIKTSAKIKSFDLIHSPHGELKAVFLLQNNLVELYSLNPSLPTPQPVRTSRITIGGHRSDVRTLSFSSDNIAVLSAAADSIKIWNRSTLQCIRTMTCEYALCSFFVPGDRQVVIGTKTGKLQLYDLASGNLLETIDAHDGALWSMSLSPDQRGFVTGGADKSVKFWDFELVKDENSTQKRLSVKQTRTLQLDEDVLCVSYSPNQKLLAVSLLDCTVKIFYVDTLKFFLSLYGHKLPVICMDISHDGALIATGSADRNVKIWGLDFGDCHKSLFAHDDSVMYLQFVPKSHLFFTAGKDHKIKQWDADKFEHIQTLEGHHQEIWCLAVSPSGDYVVSSSHDKSLRLWERTREPLILEEEREMEREAEYEESVAKEDQPAVPGETQGDSYFTGKKTIETVKAAERIMEAIELYREETAKMKEHKAICKAAGKEVPLPSNPILMAYGSISPSAYVLEIFKGIKSSELEESLLVLPFSYVPDILKLFNEFIQLGSDVELICRCLFFLLRIHFGQITSNQMLVPVIEKLRETTISKVSQVRDVIGFNMAGLDYLKRECEAKSEVMFFADATSHLEEKKRKRKKREKLILTLT
For B2, the “Difference (log2), untreated vs GFP” value in the test with GFP-14-3-3β (setting [2]) is 0.8072 log2. Further, the “Difference (log2), PP1 vs untreated” value in test [1] (setting [3]) is given as -0.4911 log2.

B3: TCF25 (protein, UniProt Q9BQ70 1-676, looked up)
Ribosome quality control …: MSRRALRRLRGEQRGQEPLGPGALHFDLRDDDDAEEEGPKRELGVRRPGGAGKEGVRVNNRFELINIDDLEDDPVVNGERSGCALTDAVAPGNKGRGQRGNTESKTDGDDTETVPSEQSHASGKLRKKKKKQKNKKSSTGEASENGLEDIDRILERIEDSTGLNRPGPAPLSSRKHVLYVEHRHLNPDTELKRYFGARAILGEQRPRQRQRVYPKCTWLTTPKSTWPRYSKPGLSMRLLESKKGLSFFAFEHSEEYQQAQHKFLVAVESMEPNNIVVLLQTSPYHVDSLLQLSDACRFQEDQEMARDLVERALYSMECAFHPLFSLTSGACRLDYRRPENRSFYLALYKQMSFLEKRGCPRTALEYCKLILSLEPDEDPLCMLLLIDHLALRARNYEYLIRLFQEWEAHRNLSQLPNFAFSVPLAYFLLSQQTDLPECEQSSARQKASLLIQQALTMFPGVLLPLLESCSVRPDASVSSHRFFGPNAEISQPPALSQLVNLYLGRSHFLWKEPATMSWLEENVHEVLQAVDAGDPAVEACENRRKVLYQRAPRNIHRHVILSEIKEAVAALPPDVTTQSVMGFDPLPPSDTIYSYVRPERLSPISHGNTIALFFRSLLPNYTMEGERPEEGVAGGLNRNQGLNRLMLAVRDMMANFHLNDLEAPHEDDAEGEGEWD
On to B3, for which the “Difference (log2), untreated vs GFP” value with GFP-14-3-3β (log2 difference, pairwise comparison untreated vs GFP) is given as -0.2721. Moreover, in test [1] (log2 difference, pairwise comparison PP1 vs untreated), the “Difference (log2), PP1 vs untreated” value is listed as 1.673.

B4: HNRNPH1 (protein, UniProt P31943 1-449, looked up)
Heterogeneous nuclear …: MMLGTEGGEGFVVKVRGLPWSCSADEVQRFFSDCKIQNGAQGIRFIYTREGRPSGEAFVELESEDEVKLALKKDRETMGHRYVEVFKSNNVEMDWVLKHTGPNSPDTANDGFVRLRGLPFGCSKEEIVQFFSGLEIVPNGITLPVDFQGRSTGEAFVQFASQEIAEKALKKHKERIGHRYIEIFKSSRAEVRTHYDPPRKLMAMQRPGPYDRPGAGRGYNSIGRGAGFERMRRGAYGGGYGGYDDYNGYNDGYGFGSDRFGRDLNYCFSGMSDHRYGDGGSTFQSTTGHCVHMRGLPYRATENDIYNFFSPLNPVRVHIEIGPDGRVTGEADVEFATHEDAVAAMSKDKANMQHRYVELFLNSTAGASGGAYEHRYVELFLNSTAGASGGAYGSQMMGGMGLSNQSSYGGPASQQLSGGYGGGYGGQSSMSGYDQVLQENSSDFQSNIA
As for B4, in the test on GFP-14-3-3β (setting [2]), the “Difference (log2), untreated vs GFP” value was 0.1701 log2. For the same molecule, the “Difference (log2), PP1 vs untreated” value in test [1] (setting [3]) was -0.5044 log2.

B5: IGHMBP2 (protein, UniProt P38935 2-993, looked up)
DNA-binding protein SMUBP-2: ASAAVESFVTKQLDLLELERDAEVEERRSWQENISLKELQSRGVCLLKLQVSSQRTGLYGRLLVTFEPRRYGSAAALPSNSFTSGDIVGLYDAANEGSQLATGILTRVTQKSVTVAFDESHDFQLSLDRENSYRLLKLANDVTYRRLKKALIALKKYHSGPASSLIEVLFGRSAPSPASEIHPLTFFNTCLDTSQKEAVLFALSQKELAIIHGPPGTGKTTTVVEIILQAVKQGLKVLCCAPSNIAVDNLVERLALCKQRILRLGHPARLLESIQQHSLDAVLARSDSAQIVADIRKDIDQVFVKNKKTQDKREKSNFRNEIKLLRKELKEREEAAMLESLTSANVVLATNTGASADGPLKLLPESYFDVVVIDECAQALEASCWIPLLKARKCILAGDHKQLPPTTVSHKAALAGLSLSLMERLAEEYGARVVRTLTVQYRMHQAIMRWASDTMYLGQLTAHSSVARHLLRDLPGVAATEETGVPLLLVDTAGCGLFELEEEDEQSKGNPGEVRLVSLHIQALVDAGVPARDIAVVSPYNLQVDLLRQSLVHRHPELEIKSVDGFQGREKEAVILSFVRSNRKGEVGFLAEDRRINVAVTRARRHVAVICDSRTVNNHAFLKTLVEYFTQHGEVRTAFEYLDDIVPENYSHENSQGSSHAATKPQGPATSTRTGSQRQEGGQEAAAPARQGRKKPAGKSLASEAPSQPSLNGGSPEGVESQDGVDHFRAMIVEFMASKKMQLEFPPSLNSHDRLRVHQIAEEHGLRHDSSGEGKRRFITVSKRAPRPRAALGPPAGTGGPAPLQPVPPTPAQTEQPPREQRGPDQPDLRTLHLERLQRVRSAQGQPASKEQQASGQQKLPEKKKKKAKGHPATDLPTEEDFEALVSAAVKADNTCGFAKCTAGVTTLGQFCQLCSRRYCLSHHLPEIHGCGERARAHARQRISREGVLYAGSGTKNGSLDPAKRAQLQRRLDKKLSELSNQRTSRRKERGT
Turning to B5, the “Difference (log2), untreated vs GFP” value in the test on GFP-14-3-3β (setting [2]) stood at 0.7737 log2. Moreover, in test [1] (setting [3]), the “Difference (log2), PP1 vs untreated” value is -0.3964 log2.
